Common to all, as to conditions: both partners purified
Assay [1] deals with T1, biotinylated integrin β1 transmembrane and cytoplasmic tail polypeptide (β1-TM–CT) in nanodiscs (UniProt P09055 726-798, biotin (biotin-maleimide)).
T1 construct: integrin β1 TM and CT, residues 726-798; embedded in MSP2N2 nanodiscs with 10% PIP2 or PIP3 and 90% DMPC, on average one TM–CT per nanodisc; held on streptavidin beads; also called b1; source: E. coli BL21 (DE3) Rosetta 2, inclusion bodies, purified (IMAC, cation exchange)
T1 sequence (P09055 726-798): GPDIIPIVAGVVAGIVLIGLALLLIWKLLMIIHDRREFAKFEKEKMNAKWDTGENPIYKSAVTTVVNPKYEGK
Nature of the assay: flow cytometry-based reporter-displacement assay (FC-RDA) on beads; biotinylated TM–CT in 10% PIP2/90% DMPC nanodiscs on streptavidin beads; reporter 50 nM 647–KIND2, unlabelled competitor titrated; 20 mM Tris pH 7.5, 200 mM NaCl, room temperature; IC50 of individual experiments; charged lipids contribute to the binding. (Flow cytometry measures light scatter and fluorescence of single cells or particles in a stream.)

For assay [2], the target named is T2, biotinylated integrin β3 transmembrane and cytoplasmic tail polypeptide (β3-TM–CT) in nanodiscs (UniProt O54890 715-787, biotin (biotin-maleimide)).
T2 construct: integrin β3 TM and CT, residues 715-787; embedded in MSP2N2 nanodiscs with 10% PIP2 or PIP3 and 90% DMPC; held on streptavidin beads; also called b3; source: E. coli BL21 (DE3) Rosetta 2, inclusion bodies, purified (IMAC, cation exchange)
T2 sequence (looked up): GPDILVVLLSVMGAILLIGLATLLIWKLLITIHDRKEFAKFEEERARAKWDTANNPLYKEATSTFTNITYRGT
The description is as above.

Assay [3] has as its target T1, biotinylated integrin β1 transmembrane …. Nature of the assay: flow cytometry-based reporter-displacement assay (FC-RDA) on beads; biotinylated TM–CT in 10% PIP3/90% DMPC nanodiscs on streptavidin beads; reporter 50 nM 647–KIND2, unlabelled competitor titrated; 20 mM Tris pH 7.5, 200 mM NaCl, room temperature; IC50 of individual experiments; charged lipids contribute to the binding.

The target in assay [4] is T2, biotinylated integrin β3 transmembrane …. In words: flow cytometry-based reporter-displacement assay (FC-RDA) on beads; biotinylated TM–CT in 10% PIP3/90% DMPC nanodiscs on streptavidin beads; reporter 100 nM 565–THD1, unlabelled competitor titrated; 20 mM Tris pH 7.5, 200 mM NaCl, room temperature; IC50 of individual experiments; charged lipids contribute to the binding.

Assay [5] addresses T1, biotinylated integrin β1 transmembrane …. Nature of the assay: flow cytometry-based reporter-displacement assay (FC-RDA) on beads; biotinylated TM–CT in 10% PIP2/90% DMPC nanodiscs on streptavidin beads; reporter 50 nM 647–KIND2, unlabelled competitor titrated; 20 mM Tris pH 7.5, 200 mM NaCl, room temperature; IC50 of individual experiments; charged lipids contribute to the binding. This is another data set of the same source.

The target is the same in assay [6]. Nature of the assay: flow cytometry-based reporter-displacement assay (FC-RDA) on beads; biotinylated TM–CT in PIP2-containing nanodiscs on streptavidin beads; reporter 565–THD1-K402E, unlabelled competitor titrated; IC50 of individual experiments.
Assay [7] addresses T2, biotinylated integrin β3 transmembrane …. The assay is described as above.
The target is the same in assay [8]. Nature of the assay: flow cytometry-based reporter-displacement assay (FC-RDA) on beads; biotinylated TM–CT in 10% PIP3/90% DMPC nanodiscs on streptavidin beads; reporter 50 nM 647–KIND2, unlabelled competitor titrated; 20 mM Tris pH 7.5, 200 mM NaCl, room temperature; IC50 of individual experiments; charged lipids contribute to the binding.
Assay [9] addresses T1, biotinylated integrin β1 transmembrane …. In words: flow cytometry-based reporter-displacement assay (FC-RDA) on beads; biotinylated TM–CT in 10% PIP3/90% DMPC nanodiscs on streptavidin beads; reporter 100 nM 565–THD1, unlabelled competitor titrated; 20 mM Tris pH 7.5, 200 mM NaCl, room temperature; IC50 of individual experiments; charged lipids contribute to the binding.
Assay [10] addresses T2, biotinylated integrin β3 transmembrane …. The description is as above. The source holds these as a separate data set.
Assay [11] addresses T1, biotinylated integrin β1 transmembrane …. In words: flow cytometry-based reporter-displacement assay (FC-RDA) on beads; biotinylated TM–CT in PIP2-containing nanodiscs on streptavidin beads; reporter 647–KIND2-Y13A, unlabelled competitor titrated; IC50 of individual experiments.
Assay [12] concerns the target T2, biotinylated integrin β3 transmembrane …. The assay is described as above.
In assay [13] the target is T1, biotinylated integrin β1 transmembrane …. Nature of the assay: flow cytometry-based reporter-displacement assay (FC-RDA) on beads; biotinylated TM–CT in 10% PIP2/90% DMPC nanodiscs on streptavidin beads; reporter 100 nM 565–THD1, unlabelled competitor titrated; 20 mM Tris pH 7.5, 200 mM NaCl, room temperature; IC50 of individual experiments; charged lipids contribute to the binding.

The target is the same in assay [14]. In words: flow cytometry-based reporter-displacement assay (FC-RDA) on beads; biotinylated TM–CT in PIP3-containing nanodiscs on streptavidin beads; reporter 647–KIND2-Y13A, unlabelled competitor titrated; IC50 of individual experiments.
For assay [15], the target named is T2, biotinylated integrin β3 transmembrane …. The assay is described as above.

Residue numbers refer to the chain shown, from its start. Names and notes keep the numbering of the source. Values joined by “and” are separate entries in the source; they are usually repeats but may differ in a detail not shown here. Equal values may be shown once.

B1: THD1 K402E (domain or fragment, UniProt P26039 1-405, looked up)
chain: MVALSLKISIGNVVKTMQFEPSTMVYDACRMIRERIPEALAGPPNDFGLFLSDDDPKKGIWLEAGKALDYYMLRNGDTMEYRKKQRPLKIRMLDGTVKTIMVDDSKTVTDMLMTICARIGITNHDEYSLVRELMEEKKDEGTGTLRKDKTLLRDEKKMEKLKQKLHTDDELNWLDHGRTLREQGVEEHETLLLRRKFFYSDQNVDSRDPVQLNLLYVQARDDILNGSHPVSFDKACEFAGFQCQIQFGPHNEQKHKAGFLDLKDFLPKEYVKQKGERKIFQAHKNCGQMSEIEAKVRYVKLARSLKTYGVSFFLVKEKMKGKNKLVPRLLGITKECVMRVDEKTKEVIQEWSLTNIKRWAASPKSFTLDFGDYQDGYYSVQTTEGEQIAQLIAGYIDIILKEKKS
notes: talin-1 (TLN1) head domain, residues 1-405, K402E; source: E. coli (DE3) Rosetta 2, purified (IMAC, SEC); not shown: His10-SUMO, N-terminal, cleaved
For B1, the IC50 in assay [1] was 271 nM and 366 nM and 201 nM and 258 nM; in [2], 186 nM and 206 nM and 276 nM and 136 nM; in assay [3], 332 nM and 291 nM and 217 nM and 447 nM.

B2: kindlin-2 (KIND2) (natural protein, UniProt Q8CIB5 1-680, looked up)
chain: MALDGIRMPDGCYADGTWELSVHVTDLNRDVTLRVTGEVHIGGVMLKLVEKLDVKKDWSDHALWWEKKRTWLLKTHWTLDKCGIQADAKLQFTPQHKLLRLQLPNMKYVKVKVNFSDRVFKAVSDICKTFNIRHPEELSLLKKPRDPTKKKKKKLDDQSEDEALELEGPLIMPGSGSIYSSPGLYSKTMTPTYDAHDGSPLSPTSAWFGDSALSEGNPGILAVSQPVTSPEILAKMFKPQALLDKAKTNQGWLDSSRSLMEQDVKENEALLLRFKYYSFFDLNPKYDAIRINQLYEQAKWALLLEEIECTEEEMMMFAALQYHINKLSIMTSENHLNNSDKEVDEVDAALSDLEITLEGGKTSTILGDITSIPELADYIKVFKPKKLTLKGYKQYWCTFKDTSISCYKSREESSGTPAHQLNLRGCEVTPDVNISGQKFNIKLLIPVAEGMNEIWLRCDNEKQYAHWMAACRLASKGKTMADSSYNLEVQNILSFLKMQHLNPDPQLIPDQITTDVNPECLVSPRYLKKYKSKQITARILEAHQNVAQMSLIEAKMRFIQAWQSLPEFGITHFIARFQGGKREELIGIAYNRLIRMDASTGDAIKTWRFSNMKQWNVNWEIKMVTVEFADEVRLSFICTEVDCKVVHEFIGGYIFLSTRAKDQNESLDEEMFYKLTSGWV
notes: kindlin-2 (KIND2), recombinant; with the F1 loop and the PH domain (unlike ΔKIND2); source: E. coli Rosetta, purified (IMAC, SEC); not shown: His10-SUMO, N-terminal, cleaved
B2: the 50% inhibitory concentration (IC50) in [4] is 760 nM and 573 nM and 678 nM; in assay [5], 151 nM and 155 nM and 176 nM and 77 nM; in assay [6] it was 514 nM and 512 nM and 396 nM and 487 nM; in assay [7] it was 116 nM and 65 nM; in [8], 79 nM and 90 nM and 69 nM.

B3: KIND2 Y13A (natural protein, UniProt Q8CIB5 1-680, looked up)
chain: B2 chain with Y13A
notes: kindlin-2 (KIND2), recombinant, Y13A; source: E. coli Rosetta, purified (IMAC, SEC); not shown: His10-SUMO, N-terminal, cleaved
As for B3, the IC50 in [9] is 168 nM and 223 nM and 116 nM; in assay [10], 176 nM and 234 nM and 205 nM and 83 nM; in [11], 78 nM and 91 nM and 124 nM; in assay [12], 112 nM and 238 nM and 305 nM; in assay [13], 203 nM and 479 nM and 290 nM; in [14] it was 56 nM and 119 nM and 60 nM. The IC50 in assay [15] was 121 nM and 167 nM and 233 nM.

Broadly, the IC50 is the point on the concentration scale where inhibition reaches its midpoint.

The values are drawn from PMC10716038, “Talin and kindlin use integrin tail allostery and direct binding to activate integrins” (Nature Structural & Molecular Biology, 2023).
